For the experiment, the target named is scFv of the anti-GLA antibody, forcibly expressed on M1 cells (Transfectant). The experiment in a line: cell-based or functional assay.
Chain of scFv of the anti-GLA antibody, forcibly expressed on M1 cells (Transfectant) (scFv, as listed by the source): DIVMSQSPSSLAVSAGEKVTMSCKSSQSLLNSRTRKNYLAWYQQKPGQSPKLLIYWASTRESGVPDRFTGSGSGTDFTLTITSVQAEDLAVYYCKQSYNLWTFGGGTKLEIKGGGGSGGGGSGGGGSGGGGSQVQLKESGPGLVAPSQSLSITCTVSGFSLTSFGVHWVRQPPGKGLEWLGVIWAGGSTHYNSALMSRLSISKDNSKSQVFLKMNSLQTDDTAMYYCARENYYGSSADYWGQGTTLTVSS

“CD19 CAR expressed on human T cells (CD19 CAR-T cells)” gave a cell viability rate of M1 cells (in vitro killing assay, control co-culture) of 66.9%.

(Values after patent publication US20220403002A1.)
